Measurements taken from patent US20250059285A1 (ARGENX, published 2025).

Columns and labels:
human Gal10-His [1] = molecular target: T1, human Gal10-His (human, UniProt Q05315 2-142, limits assumed); test: competition ELISA on coated Gal10-His; hFab 20 ug/mL, competitor g7B07-hFab-Biot, streptavidin-HRP
T1 construct: also called hGal10-His; human Gal10-His tagged; not shown: His tag
T1 sequence: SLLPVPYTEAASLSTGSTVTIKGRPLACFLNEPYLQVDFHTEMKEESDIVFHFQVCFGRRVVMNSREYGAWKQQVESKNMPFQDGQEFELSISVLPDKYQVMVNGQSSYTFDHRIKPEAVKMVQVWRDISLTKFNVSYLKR
Outline: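 Biotinylated g7B07 humanized Fab at sub-optimal concentration added to Gal10-coated plate pre-incubated with test hFab clones; percentage competition derived with motavizumab hFab set as 0% and g7B07 as 100%. Clone 1D11, binding the opposite Gal10 face including Tyr69, served as non-competing control.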

[2] = molecular target: T2, cynomolgus Gal10-His (WGS isoform) (cynomolgus); test: SPR on cynomolgus Gal10-His (WGS isoform)
T2 construct: also called cynomolgus antigen

human Gal10-His [3] = molecular target: T1, human Gal10-His; test: SPR Biacore 3000, hFab on captured human Gal10-His; column head prints (M), the text gives nM
human Gal10-His [4] = molecular target: T1, human Gal10-His; test: SPR, overview table of lead Fab candidates
[5] = molecular target: T2, cynomolgus Gal10-His (WGS isoform); test: SPR Biacore 3000, hFab on cynomolgus Gal10-His (WGS) captured by anti-His CM5
Outline: (§1)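 Fab binding measured by SPR on Biacore 3000, with His-tagged human or cynomolgus (WGS isoform) Gal10 captured on an anti-His antibody-coated CM5 chip. Clones applied either at two concentrations (cynomolgus only) or as a serial dilution.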

[6] = molecular target: T2, cynomolgus Gal10-His (WGS isoform); test: SPR Biacore 3000, hFab on captured cynomolgus Gal10-His (WGS); column head prints (M), the text gives nM
Outline: as §1

human Gal10-His [7] = molecular target: T1, human Gal10-His; test: SPR Biacore 3000, purified hFab (2 conc.) on Gal10-His captured by anti-His CM5
human Gal10-His [8] = molecular target: T1, human Gal10-His; test: SPR Biacore 3000, purified hFab on captured Gal10-His
human Gal10-His [9] = molecular target: T1, human Gal10-His; test: SPR Biacore 3000, hFab on human Gal10-His captured by anti-His CM5
human Gal10-His [10] = molecular target: T1, human Gal10-His; test: summary of periplasmic extract screening (BLI or SPR)
human Gal10-His [11] = molecular target: T1, human Gal10-His; test: SPR Biacore 3000, hFab on captured human Gal10-His
Description: For this purpose, two approaches were used. In the first, two concentrations of the selected clones were applied on cynomolgus (WGS isoform) Gal10-His capture on a CM5 chip coated with a monoclonal anti-His antibody. The second approach involved a serial dilution that was applied on human or cynomolgus (WGS isoform) Gal10-His in the same set-up.
Further characterization of the cynomolgus cross-reactivity of these clones highlighted g24F02_N53A and g23H09.

human Gal10-His [12] = molecular target: T1, human Gal10-His; test: SPR against T0 reference; sample 4 weeks at 5 C, then nebulized
Protocol: The functional active concentration of the candidates was then assessed by SPR on a Biacore 3000 instrument (FIG. 4). All samples were evaluated with methods meeting the standard qualification criteria. Aliquots were tested at predefined test concentrations against titration curves from reference samples (T0, −80° C. storage) and in the presence of quality control (QC) samples covering a range of 70-130% relative activity (% RA) towards the reference material.
comparison/reference ⁽¹⁾ samples correspond to aliquots kept at +37° C. for 4 weeks ⁽²⁾ samples correspond to aliquots kept at +5° C. for 4 weeks prior to nebulization. In brief, samples were nebulized with an Aerogen Solo active vibrating mesh nebulizer that converted a drug solution into an inhalable aerosol. Three different devices for each time-point were used per clone and results are reported by the device (nebulizer) serial number. In case of device fouling, indicated by longer nebulization times […]

[13] = molecular target: T3, recombinant human Charcot-Leyden crystals (crystalline galectin-10) (human, UniProt Q05315 2-142, limits assumed); test: cell-based or functional assay
T3 sequence: T1 sequence

B1: g23H09 (Fab) (Fab, V domains shown)
VH: EVQLLESGGGLVQPGGSLRLSCAASGFTFRSYDMSWVRQAPGKGLEWVSAIAQFQHWTYYADSVKGRFTISRDNSKNTLYLQMNSLRAEDTAVYYCATTHGIGTLGFGSWGQGTLVTVSS
VL: SYELTQPLSVSVALGQTARITCDGNNIGSKSAQWYQQKPGQAPVLVIYADEYRPEGIPERFSGSNSGNTATLTISRAQAGDEADYYCQVWDGSAAVFGGGTQLTVL
notes: same VH/VL
- % Competition against g7B07-Biot (human Gal10-His [1]): 94.3%
- Mean OD value (human Gal10-His [1]): 0.31 OD
- fold better affinity than g7B07 [2]: 7 fold
- Kd (human Gal10-His [3]): 5.34 nM
- Kd (human Gal10-His [4]): 5.3 nM
- koff (human Gal10-His [4]): 0.0031 s⁻¹
- Amplitude R0 [5]: 589 RU
- koff [5]: 0.0095 s⁻¹
- kon [5]: 950000 M⁻¹ s⁻¹
- Kd [6]: 9.9 nM
- Kd (human Gal10-His [7]): 3.9 nM
- kd-fold drop vs g7B07 (human Gal10-His [7]): 1.8 fold
- koff (human Gal10-His [7]): 0.0025 s⁻¹
- kon (human Gal10-His [7]): 650000 M⁻¹ s⁻¹
- fold better affinity than g7B07 (human Gal10-His [8]): 2.8 fold
- Amplitude R0 (human Gal10-His [9]): 722 RU
- koff (human Gal10-His [9]): 0.0031 s⁻¹
- kon (human Gal10-His [9]): 590000 M⁻¹ s⁻¹
- kd, fold compared to g7B07 (BLI or SPR) (human Gal10-His [10]): 2.5 fold
- fold better affinity than g7B07 (human Gal10-His [11]): 1.7 fold
- fold better off-rate than g7B07 (human Gal10-His [11]): 1.9 fold
- % relative activity by SPR (human Gal10-His [12]): 119%
- recGal10 crystal dissolution EC50 (T2 h), Assay 1, nebulized [13]: 297 µg/mL
- recGal10 crystal dissolution EC50 (T2 h), Assay 1, stressed (4 W at 37 C) [13]: 361 µg/mL
- recGal10 crystal dissolution EC50 (T2 h), Assay 1, unstressed (T0) [13]: 252 µg/mL
- recGal10 crystal dissolution EC50 (T2 h), Assay 2, nebulized [13]: 209 µg/mL
- recGal10 crystal dissolution EC50 (T2 h), Assay 2, stressed (4 W at 37 C) [13]: 191 µg/mL
- recGal10 crystal dissolution EC50 (T2 h), Assay 2, unstressed (T0) [13]: 190 µg/mL
